Several values for one entry are separate records, joined by “and”; a condition that tells them apart may be missing. Equal entries are not always repeated.
Columns and labels:
IL-33 = molecular target: T1, IL-33 (Homo sapiens, UniProt O95760); experiment: ELISA, antigen binding specificity of bsBp (IL-33); set-up: key: −: no binding; +: weak; ++: moderate; +++: strong binding; N/A refers to no binding affinity; details: 33.5 nM; antigen coated at 2 μg/mL
T1 construct: purchased R&D systems
T1 sequence (O95760 95-270): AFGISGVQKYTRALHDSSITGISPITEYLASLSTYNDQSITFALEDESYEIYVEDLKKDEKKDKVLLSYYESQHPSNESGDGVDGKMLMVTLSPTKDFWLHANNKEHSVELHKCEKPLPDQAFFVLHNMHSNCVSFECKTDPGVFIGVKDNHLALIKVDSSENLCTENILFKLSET
Description: Binding specificities of bsBp were evaluated by standard ELISA assays. Briefly, ELISA strips were coated with the respective target antigens, including IL17RB, IL-33, or TSLP (R&D systems) at a final concentration of 2 μg/mL. Bispecific antibodies were added at 33.5 nM to ELISA strips coated with the desired antigen. After incubation under room temperature for 2 hours, ELISA strips were washed five times with PBS. […] No result is provided for SM17-human TSLPR as the yield was too low to be detected.

[1] = tested on: Human renal carcinoma cell line TK-10; experiment: IL-8 release from IL-25/TNFa-treated TK-10 cells; format: cell-based; details: 1 mg/mL; 100 ng/mL IL-25, 10 ng/mL TNFa; 24 or 48 hours
Description: Human renal carcinoma cell line TK-10 (NCI-60, NIH, Bethesda, MD) treated with human IL-25 (PeproTech) and TNFa (R&D systems) can lead to the release of IL-8, also known as neutrophil chemotactic factor, an important mediator of the immune reaction in the innate immune system response. Accordingly, the inhibitory effects of SM17 and its murine counterpart (D9.2) on IL-8 release from IL-25/TNFa-treated TK-10 cells was evaluated. Briefly, SM17 (human IgG4 isotype, SinoMab BioScience Limited, Hong Kong, China), SM17-IgG1 (human IgG1 isotype, SinoMab BioScience Limited) and its murine counterpart (D9.2, SinoMab BioScience Limited) at a concentration of 1 mg/mL were added to 2×10^4 of TK-10 cells in the presence of 100 ng/mL of IL-25 and 10 ng/mL of TNFa. Non-specific human IgG1 (SM03, anti-CD22 chimeric antibody, SinoMab BioScience Limited) was used as the control antibody. Treated cells were cultured in OptiMEM (Thermo Fisher Scientific) for 24 or 48 hours at 37° C., and the level of IL-8 release in the culture supernatant was measured by standard ELISA assay using a commercial kit (R&D systems).

Human PBMCs [2] = experiment: CCL17 release from human PBMC incubated with TSLP; format: cell-based; set-up: key to Intensity of specific cytokine inhibition, CCL-17: −: no inhibition; +: weak; ++: moderate; +++: strong inhibition
Description: (§1) Human PBMCs (4×10^5 per group, Ixcells) were incubated with IL-2 (10 unit/mL, PeproTech) and various alarmin/alarmin combinations to mimic the pro-inflammatory cytokines release during allergic diseases. For IL-5 and IL-13 releases, PBMCs were incubated with IL-2 and three alarmins (all 10 ng/ml) for three days. For CCL17 release, PBMC was incubated with TSLP (10 ng/ml) for 1 day. For CCL8 and IFNγ releases, PBMCs were incubated with IL-12 (10 ng/ml, Sino Biological) and IL-33 (10 ng/ml) for 1 day. Cells were pretreated with SM17 (5 μg/ml) or IgG4 isotype control (5 μg/ml) for an hour before the addition of cytokines.
(§2) Supernatants were collected and the cytokine concentration were measured by ELISA kits (R&D systems). These established assays were used to test the potency of and SM17 and bsBps. […] Results were expressed in absolute amount in pg/ml.
(§3) SM17, three different SM17-anti-IL33 bsBps and three different SM17-anti-TSLP bsBps (all at 5 μg/ml) were added to human PBMC cultures under conditions that shall induce the release of IFNγ, CCL8, CCL17 and IL-5 as described in Example 11 above. The levels of different cytokines and chemotactic factors in supernatant obtained in induced PBMC were evaluated using standard ELISA methods.

Human PBMCs [3] = experiment: CCL8 and IFNγ release from human PBMC incubated with IL-12 and IL-33; format: cell-based; set-up: key to Intensity of specific cytokine inhibition, IFNγ / Intensity of specific cytokine inhibition, CCL-8: −: no inhibition; +: weak; ++: moderate; +++: strong inhibition
Description: as §1, §2, §3

murine IL17RB = molecular target: T2, murine IL17RB (Mus musculus, UniProt Q9JIP3); experiment: ELISA, SM17 binding to coated IL-17RB protein (murine); details: two wells
T2 construct: purchased R&D systems
T2 sequence (Q9JIP3 18-499): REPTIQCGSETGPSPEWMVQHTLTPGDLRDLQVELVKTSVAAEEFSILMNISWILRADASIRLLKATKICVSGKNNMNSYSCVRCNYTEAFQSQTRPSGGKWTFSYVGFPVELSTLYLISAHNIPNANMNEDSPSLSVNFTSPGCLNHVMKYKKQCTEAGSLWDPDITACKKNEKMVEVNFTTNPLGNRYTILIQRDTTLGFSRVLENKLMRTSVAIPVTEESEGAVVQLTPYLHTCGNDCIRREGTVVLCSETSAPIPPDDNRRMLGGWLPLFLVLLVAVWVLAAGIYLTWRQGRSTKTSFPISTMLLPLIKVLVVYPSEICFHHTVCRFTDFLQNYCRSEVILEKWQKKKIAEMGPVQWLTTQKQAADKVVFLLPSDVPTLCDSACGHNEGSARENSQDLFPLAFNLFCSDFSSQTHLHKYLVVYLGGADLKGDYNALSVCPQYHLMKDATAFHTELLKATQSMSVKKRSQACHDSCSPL
Description: A standard enzyme-linked immunosorbent assay (ELISA) method was used to determine the species specificity of SM17 against IL-17RB proteins. Briefly, IL-17RB proteins from human, mouse, cynomolgus or rhesus monkey (R&D systems, Minneapolis, MN) were diluted to 2.5 μg/ml in PBS and 50 μl of IL-17RB proteins were added to each well of ELISA strip. The strips were sealed with parafilm and incubated at 4° C. overnight for coating.
On the next day, strips were washed thrice with washing buffer (0.05% Tween 20 in PBS) and blocked with 100 μl per well with blocking buffer (3% BSA in PBS) for 2 hours RT before serially diluted SM17 (at a final concentration of 10, 2, 0.4, 0.08, 0.016, 0.0032, and 0.00064 μg/ml, respectively) was added.

[4] = SM17 5 μg/ml, IL-12 and IL-33 10 ng/ml, 1 day, vs IgG4 isotype control

Intensity of specific antigen binding, IL-33 coated on ELISA strips (IL-33): −
OD 450 nm Absorption, murine IL17RB (murine IL17RB; SM17 0.0032 μg/mL): 0.12 and 0.19
OD 450 nm Absorption, murine IL17RB (murine IL17RB; SM17 0.016 μg/mL): 0.31
OD 450 nm Absorption, murine IL17RB (murine IL17RB; SM17 0.08 μg/mL): 0.78
OD 450 nm Absorption, murine IL17RB (murine IL17RB; SM17 0.4 μg/mL): 1.68 and 1.61
OD 450 nm Absorption, murine IL17RB (murine IL17RB; SM17 2 μg/mL): 2.46 and 2.44
OD 450 nm Absorption, murine IL17RB (murine IL17RB; SM17 10 μg/mL): 2.67 and 2.61
Substance: SM17: humanized anti-IL17RB monoclonal antibody, human IgG4 isotype; HC SEQ ID NO: 32, LC SEQ ID NO: 33
release of IL-8 by IL-25/TNFa-induced TK-10 cells (in words) [1]: efficiently suppress the release of IL-8
Intensity of specific cytokine inhibition, CCL-17 (Human PBMCs [2]; 5 μg/ml, human PBMC): −
CCL17 release (in words) (Human PBMCs [2]; SM17 5 μg/ml, TSLP 10 ng/ml, 1 day, vs IgG4 isotype control): no inhibitory effects
Intensity of specific cytokine inhibition, CCL-8 (Human PBMCs [3]; 5 μg/ml, human PBMC): −
Intensity of specific cytokine inhibition, IFNγ (Human PBMCs [3]; 5 μg/ml, human PBMC): −
CCL8 release (in words) (Human PBMCs [3]; [4]): no inhibitory effects
IFNγ release (in words) (Human PBMCs [3]; [4]): no inhibitory effects
